Results: PMC5352144, “Deacetylation of sialic acid by esterases potentiates pneumococcal neuraminidase activity for mucin utilization, colonization and virulence” (PLoS Pathogens, 2017)

Test system: CC(=O)Oc1ccc([N+](=O)[O-])cc1
Assay: purified protein
Conditions: pH 7.5

Axe (Streptococcus pneumoniae D39)
Km: 4.4 ± 0.58 mM
